The values below come from patent US20260049138A1 (Chugai, published 2026).

B1: CE115HA000 S30G one-arm antibody (antibody, human IgG1, kappa, L234A L235A, N297A, name in Kabat numbering)
heavy: QVQLVESGGGVVQPGRSLRLSCAASGFTFGNAWMHWVRQAPGKGLEWVAQIKAKSNNYATYYAESVKGRFTISRDDSKNSLYLQMNSLKTEDTAVYYCRYVHYGAYYGVDAWGQGTTVTVSSASTKGPSVFPLAPSSKSTSGGTAALGCLVKDYFPEPVTVSWNSGALTSGVHTFPAVLQSSGLYSLSSVVTVPSSSLGTQTYICNVNHKPSNTKVDKKVEPKSCDKTHTCPPCPAPEAAGGPSVFLFPPKPKDTLMISRTPEVTCVVVDVSHEDPEVKFNWYVDGVEVHNAKTKPREEQYASTYRVVSVLTVLHQDWLNGKEYKCKVSNKALPAPIEKTISKAKGQPREPQVYTLPPSRCELTKNQVSLSCAVKGFYPSDIAVEWESNGQPENNYKTTPPVLDSDGSFFLVSKLTVDKSRWQQGNVFSCSVMHEALHNHYTQKSLSLSPDYKDDDDK
chain: EPKSSDKTHTCPPCPAPELLGGPSVFLFPPKPKDTLMISRTPEVTCVVVDVSHEDPEVKFNWYVDGVEVHNAKTKPREEQYNSTYRVVSVLTVLHQDWLNGKEYKCKVSNKALPAPIEKTISKAKGQPREPQVCTLPPSRDELTKNQVSLWCLVKGFYPSDIAVEWESNGQPENNYKTTPPVLDSDGSFFLYSKLTVDKSRWQQGNVFSCSVMHEALHNRYTQKSLSLSP
light: DIVMTQSPLSLPVTPGEPASISCRSSQSLVHSNRNTYLHWYQQKPGQAPRLLIYKVSNRFSGVPDRFSGSGSGTDFTLKISRVEAEDVGVYYCGQGTQVPYTFGQGTKLEIKRTVAAPSVFIFPPSDEQLKSGTASVVCLLNNFYPREAKVQWKVDNALQSGNSQESVTEQDSKDSTYSLSSTLTLSKADYEKHKVYACEVTHQGLSSPVTKSFNRGEC
B2: CE115HA000 S52cA one-arm antibody (antibody, human IgG1, kappa, L234A L235A, N297A, name in Kabat numbering)
heavy: QVQLVESGGGVVQPGRSLRLSCAASGFTFSNAWMHWVRQAPGKGLEWVAQIKAKANNYATYYAESVKGRFTISRDDSKNSLYLQMNSLKTEDTAVYYCRYVHYGAYYGVDAWGQGTTVTVSSASTKGPSVFPLAPSSKSTSGGTAALGCLVKDYFPEPVTVSWNSGALTSGVHTFPAVLQSSGLYSLSSVVTVPSSSLGTQTYICNVNHKPSNTKVDKKVEPKSCDKTHTCPPCPAPEAAGGPSVFLFPPKPKDTLMISRTPEVTCVVVDVSHEDPEVKFNWYVDGVEVHNAKTKPREEQYASTYRVVSVLTVLHQDWLNGKEYKCKVSNKALPAPIEKTISKAKGQPREPQVYTLPPSRCELTKNQVSLSCAVKGFYPSDIAVEWESNGQPENNYKTTPPVLDSDGSFFLVSKLTVDKSRWQQGNVFSCSVMHEALHNHYTQKSLSLSPDYKDDDDK
chain: EPKSSDKTHTCPPCPAPELLGGPSVFLFPPKPKDTLMISRTPEVTCVVVDVSHEDPEVKFNWYVDGVEVHNAKTKPREEQYNSTYRVVSVLTVLHQDWLNGKEYKCKVSNKALPAPIEKTISKAKGQPREPQVCTLPPSRDELTKNQVSLWCLVKGFYPSDIAVEWESNGQPENNYKTTPPVLDSDGSFFLYSKLTVDKSRWQQGNVFSCSVMHEALHNRYTQKSLSLSP
light: DIVMTQSPLSLPVTPGEPASISCRSSQSLVHSNRNTYLHWYQQKPGQAPRLLIYKVSNRFSGVPDRFSGSGSGTDFTLKISRVEAEDVGVYYCGQGTQVPYTFGQGTKLEIKRTVAAPSVFIFPPSDEQLKSGTASVVCLLNNFYPREAKVQWKVDNALQSGNSQESVTEQDSKDSTYSLSSTLTLSKADYEKHKVYACEVTHQGLSSPVTKSFNRGEC
B3: CE115HA000 S52cF one-arm antibody (antibody, human IgG1, kappa, L234A L235A, N297A, name in Kabat numbering)
heavy: QVQLVESGGGVVQPGRSLRLSCAASGFTFSNAWMHWVRQAPGKGLEWVAQIKAKFNNYATYYAESVKGRFTISRDDSKNSLYLQMNSLKTEDTAVYYCRYVHYGAYYGVDAWGQGTTVTVSSASTKGPSVFPLAPSSKSTSGGTAALGCLVKDYFPEPVTVSWNSGALTSGVHTFPAVLQSSGLYSLSSVVTVPSSSLGTQTYICNVNHKPSNTKVDKKVEPKSCDKTHTCPPCPAPEAAGGPSVFLFPPKPKDTLMISRTPEVTCVVVDVSHEDPEVKFNWYVDGVEVHNAKTKPREEQYASTYRVVSVLTVLHQDWLNGKEYKCKVSNKALPAPIEKTISKAKGQPREPQVYTLPPSRCELTKNQVSLSCAVKGFYPSDIAVEWESNGQPENNYKTTPPVLDSDGSFFLVSKLTVDKSRWQQGNVFSCSVMHEALHNHYTQKSLSLSPDYKDDDDK
chain: EPKSSDKTHTCPPCPAPELLGGPSVFLFPPKPKDTLMISRTPEVTCVVVDVSHEDPEVKFNWYVDGVEVHNAKTKPREEQYNSTYRVVSVLTVLHQDWLNGKEYKCKVSNKALPAPIEKTISKAKGQPREPQVCTLPPSRDELTKNQVSLWCLVKGFYPSDIAVEWESNGQPENNYKTTPPVLDSDGSFFLYSKLTVDKSRWQQGNVFSCSVMHEALHNRYTQKSLSLSP
light: DIVMTQSPLSLPVTPGEPASISCRSSQSLVHSNRNTYLHWYQQKPGQAPRLLIYKVSNRFSGVPDRFSGSGSGTDFTLKISRVEAEDVGVYYCGQGTQVPYTFGQGTKLEIKRTVAAPSVFIFPPSDEQLKSGTASVVCLLNNFYPREAKVQWKVDNALQSGNSQESVTEQDSKDSTYSLSSTLTLSKADYEKHKVYACEVTHQGLSSPVTKSFNRGEC
B4: CE115HA000 S52cK one-arm antibody (antibody, human IgG1, kappa, L234A L235A, N297A, name in Kabat numbering)
heavy: QVQLVESGGGVVQPGRSLRLSCAASGFTFSNAWMHWVRQAPGKGLEWVAQIKAKKNNYATYYAESVKGRFTISRDDSKNSLYLQMNSLKTEDTAVYYCRYVHYGAYYGVDAWGQGTTVTVSSASTKGPSVFPLAPSSKSTSGGTAALGCLVKDYFPEPVTVSWNSGALTSGVHTFPAVLQSSGLYSLSSVVTVPSSSLGTQTYICNVNHKPSNTKVDKKVEPKSCDKTHTCPPCPAPEAAGGPSVFLFPPKPKDTLMISRTPEVTCVVVDVSHEDPEVKFNWYVDGVEVHNAKTKPREEQYASTYRVVSVLTVLHQDWLNGKEYKCKVSNKALPAPIEKTISKAKGQPREPQVYTLPPSRCELTKNQVSLSCAVKGFYPSDIAVEWESNGQPENNYKTTPPVLDSDGSFFLVSKLTVDKSRWQQGNVFSCSVMHEALHNHYTQKSLSLSPDYKDDDDK
chain: EPKSSDKTHTCPPCPAPELLGGPSVFLFPPKPKDTLMISRTPEVTCVVVDVSHEDPEVKFNWYVDGVEVHNAKTKPREEQYNSTYRVVSVLTVLHQDWLNGKEYKCKVSNKALPAPIEKTISKAKGQPREPQVCTLPPSRDELTKNQVSLWCLVKGFYPSDIAVEWESNGQPENNYKTTPPVLDSDGSFFLYSKLTVDKSRWQQGNVFSCSVMHEALHNRYTQKSLSLSP
light: DIVMTQSPLSLPVTPGEPASISCRSSQSLVHSNRNTYLHWYQQKPGQAPRLLIYKVSNRFSGVPDRFSGSGSGTDFTLKISRVEAEDVGVYYCGQGTQVPYTFGQGTKLEIKRTVAAPSVFIFPPSDEQLKSGTASVVCLLNNFYPREAKVQWKVDNALQSGNSQESVTEQDSKDSTYSLSSTLTLSKADYEKHKVYACEVTHQGLSSPVTKSFNRGEC
B5: CE115HA000 S52cD one-arm antibody (antibody, human IgG1, kappa, L234A L235A, N297A, name in Kabat numbering)
heavy: QVQLVESGGGVVQPGRSLRLSCAASGFTFSNAWMHWVRQAPGKGLEWVAQIKAKDNNYATYYAESVKGRFTISRDDSKNSLYLQMNSLKTEDTAVYYCRYVHYGAYYGVDAWGQGTTVTVSSASTKGPSVFPLAPSSKSTSGGTAALGCLVKDYFPEPVTVSWNSGALTSGVHTFPAVLQSSGLYSLSSVVTVPSSSLGTQTYICNVNHKPSNTKVDKKVEPKSCDKTHTCPPCPAPEAAGGPSVFLFPPKPKDTLMISRTPEVTCVVVDVSHEDPEVKFNWYVDGVEVHNAKTKPREEQYASTYRVVSVLTVLHQDWLNGKEYKCKVSNKALPAPIEKTISKAKGQPREPQVYTLPPSRCELTKNQVSLSCAVKGFYPSDIAVEWESNGQPENNYKTTPPVLDSDGSFFLVSKLTVDKSRWQQGNVFSCSVMHEALHNHYTQKSLSLSPDYKDDDDK
chain: EPKSSDKTHTCPPCPAPELLGGPSVFLFPPKPKDTLMISRTPEVTCVVVDVSHEDPEVKFNWYVDGVEVHNAKTKPREEQYNSTYRVVSVLTVLHQDWLNGKEYKCKVSNKALPAPIEKTISKAKGQPREPQVCTLPPSRDELTKNQVSLWCLVKGFYPSDIAVEWESNGQPENNYKTTPPVLDSDGSFFLYSKLTVDKSRWQQGNVFSCSVMHEALHNRYTQKSLSLSP
light: DIVMTQSPLSLPVTPGEPASISCRSSQSLVHSNRNTYLHWYQQKPGQAPRLLIYKVSNRFSGVPDRFSGSGSGTDFTLKISRVEAEDVGVYYCGQGTQVPYTFGQGTKLEIKRTVAAPSVFIFPPSDEQLKSGTASVVCLLNNFYPREAKVQWKVDNALQSGNSQESVTEQDSKDSTYSLSSTLTLSKADYEKHKVYACEVTHQGLSSPVTKSFNRGEC
B6: CE115HA000 S52cG one-arm antibody (antibody, human IgG1, kappa, L234A L235A, N297A, name in Kabat numbering)
heavy: QVQLVESGGGVVQPGRSLRLSCAASGFTFSNAWMHWVRQAPGKGLEWVAQIKAKGNNYATYYAESVKGRFTISRDDSKNSLYLQMNSLKTEDTAVYYCRYVHYGAYYGVDAWGQGTTVTVSSASTKGPSVFPLAPSSKSTSGGTAALGCLVKDYFPEPVTVSWNSGALTSGVHTFPAVLQSSGLYSLSSVVTVPSSSLGTQTYICNVNHKPSNTKVDKKVEPKSCDKTHTCPPCPAPEAAGGPSVFLFPPKPKDTLMISRTPEVTCVVVDVSHEDPEVKFNWYVDGVEVHNAKTKPREEQYASTYRVVSVLTVLHQDWLNGKEYKCKVSNKALPAPIEKTISKAKGQPREPQVYTLPPSRCELTKNQVSLSCAVKGFYPSDIAVEWESNGQPENNYKTTPPVLDSDGSFFLVSKLTVDKSRWQQGNVFSCSVMHEALHNHYTQKSLSLSPDYKDDDDK
chain: EPKSSDKTHTCPPCPAPELLGGPSVFLFPPKPKDTLMISRTPEVTCVVVDVSHEDPEVKFNWYVDGVEVHNAKTKPREEQYNSTYRVVSVLTVLHQDWLNGKEYKCKVSNKALPAPIEKTISKAKGQPREPQVCTLPPSRDELTKNQVSLWCLVKGFYPSDIAVEWESNGQPENNYKTTPPVLDSDGSFFLYSKLTVDKSRWQQGNVFSCSVMHEALHNRYTQKSLSLSP
light: DIVMTQSPLSLPVTPGEPASISCRSSQSLVHSNRNTYLHWYQQKPGQAPRLLIYKVSNRFSGVPDRFSGSGSGTDFTLKISRVEAEDVGVYYCGQGTQVPYTFGQGTKLEIKRTVAAPSVFIFPPSDEQLKSGTASVVCLLNNFYPREAKVQWKVDNALQSGNSQESVTEQDSKDSTYSLSSTLTLSKADYEKHKVYACEVTHQGLSSPVTKSFNRGEC
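Also: Single-residue variant antibodies injected as analyte over CD3ε homodimer immobilized by amine coupling, run at 25 °C in HBS-EP+ buffer.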

In the test the target is T1, CD3ε homodimer protein (human, UniProt P07766 23-126, limits assumed, sulfo-tag or biotin label in the ECL assays; amine-coupled to the chip in SPR).
T1 construct: also called human CD3ε homodimer protein; CD3 (CD3ε)
T1 sequence (P07766 23-126 limits assumed): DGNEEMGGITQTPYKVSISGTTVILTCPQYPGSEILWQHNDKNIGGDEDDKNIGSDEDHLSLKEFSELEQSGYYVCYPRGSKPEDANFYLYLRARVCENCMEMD
Briefly: SPR Biacore T200; CD3ε homodimer on CM4 chip. (In general: In SPR one partner is held on a chip, and binding of the other changes the refractive index at the surface.)
B1: the “ratio of amounts bound Z=Y/X (altered form / CE115HA000)” value was 1.01. Next, B2: 0.96; B3: 1.13; B4: 1.19. As for B5, the figure is 0.6; as for B6, 0.97.
